The target in the assay is CrtSPARTA (heterodimeric TIR-APAZ/short pAgo complex from Crenotalea thermophila) (Crenotalea thermophila). Description: cryo-EM structure.

On to “CrtSPARTA (heterodimeric TIR-APAZ/short pAgo complex from Crenotalea thermophila)”, for which the stoichiometry N (heterodimers in the assembly (octamer)) worked out at 4 and the stoichiometry N (heterodimers in the assembly (tetramer)) is 2.

The values above are taken from paper doi:10.1101/2023.07.12.548734.
